Test results: the supplement of paper PMC9233669
Variants at the floor of the assay were thinned out.

How the values were obtained:
[1] = system: biotinyl-Trp-oxazolone; experiment: self-aminoacylation, catalytic enhancement (BWO) (fold over background); higher = more active; k-Seq, kA / k0A0; sequences stand for … in GGGAAUGGAUCCACAUCUACGAAUUC…UUCACUGCAGACUUGACGAAGCUG
In short: (§1)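 The uncatalyzed rate is the low-activity peak of a bimodal Gaussian fit, and catalytic enhancement is median kA divided by it. The kA values came from pseudo-first-order fits, with 1000 bootstraps, of per-sequence fraction reacted measured by streptavidin capture, triplicate qPCR and Illumina sequencing. Mutagenized RNA pools with a 21-nt variable region (0.43 μM) were reacted with each biotinyl-aminoacyl-oxazolone at 2–1250 μM in 50 μL HEPES/NaCl/KCl/MgCl2/CaCl2 buffer with 5% acetonitrile, pH 6.9–7.0, for 90 minutes at room temperature.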

[2] = system: biotinyl-Leu-oxazolone; experiment: self-aminoacylation, catalytic enhancement (BLO) (fold over background); higher = more active; k-Seq, kA / k0A0; sequences stand for … in GGGAAUGGAUCCACAUCUACGAAUUC…UUCACUGCAGACUUGACGAAGCUG
In short: as §1

[3] = system: biotinyl-Ile-oxazolone; experiment: self-aminoacylation, catalytic enhancement (BIO) (fold over background); higher = more active; k-Seq, kA / k0A0; sequences stand for … in GGGAAUGGAUCCACAUCUACGAAUUC…UUCACUGCAGACUUGACGAAGCUG
In short: as §1

[4] = system: biotinyl-Met-oxazolone; experiment: self-aminoacylation, catalytic enhancement (BMO) (fold over background); higher = more active; k-Seq, kA / k0A0; sequences stand for … in GGGAAUGGAUCCACAUCUACGAAUUC…UUCACUGCAGACUUGACGAAGCUG
In short: as §1

[5] = system: biotinyl-Phe-oxazolone; experiment: self-aminoacylation, catalytic enhancement (BFO) (fold over background); higher = more active; k-Seq, kA / k0A0; sequences stand for … in GGGAAUGGAUCCACAUCUACGAAUUC…UUCACUGCAGACUUGACGAAGCUG
In short: as §1

[6] = system: biotinyl-Val-oxazolone; experiment: self-aminoacylation, catalytic enhancement (BVO) (fold over background); higher = more active; k-Seq, kA / k0A0; sequences stand for … in GGGAAUGGAUCCACAUCUACGAAUUC…UUCACUGCAGACUUGACGAAGCUG
In short: as §1

Sequence	self-aminoacylation [1]	self-aminoacylation [2]	self-aminoacylation [3]	self-aminoacylation [4]	self-aminoacylation [5]	self-aminoacylation [6]
AUUCGCCUAGGUCAUCGGGUA [Fam2.2 aminoacylation ribozyme variant]	35.3	68.8	25.1	46.9	391	23.4
AUUCGCCUAGGUCAUCGUGUG [Fam2.2 aminoacylation ribozyme variant]	0.823	1.35	1.04	1.45	3.31	1.05
AUUCGCCUAGGUCAUCUGGUG [Fam2.2 aminoacylation ribozyme variant]	3.3	3.87	2.24	2.96	19.3	2.23
AUUCGCCUAGGUCAUGGGGUG [Fam2.2 aminoacylation ribozyme variant]	5.56	6.48	3.88	5.41	31.7	4.43
AUUCGCCUAGGUCCUCGGGUG [Fam2.2 aminoacylation ribozyme variant]	6.48	8.24	4.84	6.35	46.8	4.56
AUUCUCCCAGGUCAUCGGGUG [Fam2.2 aminoacylation ribozyme variant]	9.06	12.8	6.87	10.2	90	6.91
AUUCUCCUAGCUCAUCGGGUG [Fam2.2 aminoacylation ribozyme variant]	4.24	3.79	3.32	3.24	23.2	3.75
AUUCUCCUAGGUCAUCGAGUG [Fam2.2 aminoacylation ribozyme variant]	3.73	6.3	3.62	5.07	6.65	3.77
AUUCUCCUAGGUCAUCGGGUA [Fam2.2 aminoacylation ribozyme variant]	7.31	8.96	4.71	7.07	29.6	4.84
AUUCUCCUGGUCAUCGAGUGA [Fam2.1 aminoacylation ribozyme variant]	7.91	6.5	3.67	6.14	33.7	3.89
AUUCUCUUAGGUCAUCGGGUG [Fam2.2 aminoacylation ribozyme variant]	9.36	12.5	5.7	9.08	77.6	5.53
AUUCUUCUAGGUCAUCGGGUG [Fam2.2 aminoacylation ribozyme variant]	6.98	9.07	4.52	7.87	50.3	5.28
AUUGACCUACGUCAUCGGGUG [Fam2.2 aminoacylation ribozyme variant]	5.9	6.43	3.13	4.72	40.6	3.81
AUUGACCUAGGGCAUCGGGUG [Fam2.2 aminoacylation ribozyme variant]	4.66	3.63	3.23	3.13	17	3.28
AUUGACCUAGGUCACCGGGUG [Fam2.2 aminoacylation ribozyme variant]	6.05	6.34	4.43	4.69	29.6	4.87
AUUGACCUAGGUCAUCGGGGG [Fam2.2 aminoacylation ribozyme variant]	3.93	4.57	3.41	3.21	12.8	3.04
AUUGACCUAGGUCAUCGGGUU [Fam2.2 aminoacylation ribozyme variant]	12.2	18.8	7.25	13.9	98.6	6.49
AUUGACCUAGGUCUUCGGGUG [Fam2.2 aminoacylation ribozyme variant]	4.79	4.19	3.85	4.29	19	3.97
AUUGACCUAGUUCAUCGGGUG [Fam2.2 aminoacylation ribozyme variant]	4.08	3.62	2.62	3.19	18.6	2.59
AUUGACCUGGGUCAUCGGGUG [Fam2.2 aminoacylation ribozyme variant]	24.1	29.6	12.2	25.9	107	13.5
AUUGACCUGGUCAUCGAGUGA [Fam2.1 aminoacylation ribozyme variant]	9.68	7.86	3.66	6.92	8.3	4.1
AUUGCCCUGGACAUCGAGUGA [Fam2.1 aminoacylation ribozyme variant]	5.92	5.58	2.41	5.71	24.8	3.11
AUUGCCCUGGUCAACGAGUGA [Fam2.1 aminoacylation ribozyme variant]	7.12	6.71	3.3	6.85	49.1	3.53
AUUGCCCUGGUCAUCGAGGGA [Fam2.1 aminoacylation ribozyme variant]	3.16	3.97	1.93	3.9	4.65	2.22
AUUGCCCUGUUCAUCGAGUGA [Fam2.1 aminoacylation ribozyme variant]	7.43	5.81	3	5.44	25.2	4.12
AUUGCCCUUGUCAUCGAGUGA [Fam2.1 aminoacylation ribozyme variant]	8.3	7.02	3.38	7.03	42.1	3.88

Sequence	self-aminoacylation [1]	self-aminoacylation [2]	self-aminoacylation [3]	self-aminoacylation [4]	self-aminoacylation [5]	self-aminoacylation [6]
AUUGUCCUAGGUCAUCGGGUG [Fam2.2 aminoacylation ribozyme variant]	27.1	39.1	14.2	30.2	200	13.6
AUUUACCAAGGUCAUCGGGUG [Fam2.2 aminoacylation ribozyme variant]	7.11	9.69	4.61	7.36	77.2	4.6
AUUUACCCAGGUCAUCGGGUG [Fam2.2 aminoacylation ribozyme variant]	3.66	6.46	3.28	5.07	44.3	3.55
AUUUACCUAGCUCAUCGGGUG [Fam2.2 aminoacylation ribozyme variant]	2.04	2.58	2.01	2.16	8.53	2.4
AUUUACCUAGGCCAUCGGGUG [Fam2.2 aminoacylation ribozyme variant]	3.98	3.95	2.47	3.07	17.4	3.2
AUUUACCUAGGUCAGCGGGUG [Fam2.2 aminoacylation ribozyme variant]	3.98	4.23	2.49	4.01	24.5	3.16
AUUUACCUAGGUCAUAGGGUG [Fam2.2 aminoacylation ribozyme variant]	1.97	1.87	1.37	1.58	1.34	1.48
AUUUACCUAGGUCAUCCGGUG [Fam2.2 aminoacylation ribozyme variant]	4.6	7.4	3.68	4.7	41.8	3.81
AUUUACCUAGGUCAUCGCGUG [Fam2.2 aminoacylation ribozyme variant]	9.58	13.6	5.32	9.66	82.1	5.84
AUUUACCUAUGUCAUCGGGUG [Fam2.2 aminoacylation ribozyme variant]	4.76	6.5	3.04	4.35	28	2.96
AUUUACGUAGGUCAUCGGGUG [Fam2.2 aminoacylation ribozyme variant]	3.64	3.68	2.88	3.99	25.2	3.38
AUUUCCCAGGUCAUCGAGUGA [Fam2.1 aminoacylation ribozyme variant]	6.32	5.63	2.89	5.06	26.3	3.4
AUUUCCCUGAUCAUCGAGUGA [Fam2.1 aminoacylation ribozyme variant]	7.61	5.98	3	6.25	18.5	3.27
AUUUCCCUGGCCAUCGAGUGA [Fam2.1 aminoacylation ribozyme variant]	3.3	2.78	1.72	2.45	11.7	1.95
AUUUCCCUGGUCAUCGAAUGA [Fam2.1 aminoacylation ribozyme variant]	0.88	1.02	1.09	1.02	0.941	1.12
AUUUCCCUGGUCAUCGAUUGA [Fam2.1 aminoacylation ribozyme variant]	0.985	1.06	1.07	0.986	0.598	1
AUUUCCCUGGUCAUGGAGUGA [Fam2.1 aminoacylation ribozyme variant]	4.72	4.22	2.96	4.2	22	2.89
AUUUCCCUGGUGAUCGAGUGA [Fam2.1 aminoacylation ribozyme variant]	6.58	5.66	2.77	5.5	44.4	3.15
AUUUCCCUGUUCAUCGAGUGA [Fam2.1 aminoacylation ribozyme variant]	5.62	5.04	2.79	5.22	11.4	3.09
AUUUCGCUGGUCAUCGAGUGA [Fam2.1 aminoacylation ribozyme variant]	5.72	5.38	2.84	4.64	28.5	3.16
CAACACCUCAAGCAAUCGGUC [Fam1B.1 aminoacylation ribozyme variant]	0.997	1.1	0.947	1.27	1.3	0.914
CAACACUUCAAGCAAACGGUC [Fam1B.1 aminoacylation ribozyme variant]	0.739	0.68	0.92	0.678	0.797	0.815
CAACACUUCAAGCAAUCCGUC [Fam1B.1 aminoacylation ribozyme variant]	0.727	1.02	1.24	1.19	1.12	1.31
CAACACUUCAAGCAAUCGGUA [Fam1B.1 aminoacylation ribozyme variant]	1.23	1.13	1.25	1.15	1.44	1.14
CAACACUUCAAGCAAUCGGUU [Fam1B.1 aminoacylation ribozyme variant]	4.96	1.76	1.84	1.64	6.96	1.52
